In patent US20130102031A1:

T1: human IL-17a (human) (UniProt Q16552)
T1 sequence (looked up): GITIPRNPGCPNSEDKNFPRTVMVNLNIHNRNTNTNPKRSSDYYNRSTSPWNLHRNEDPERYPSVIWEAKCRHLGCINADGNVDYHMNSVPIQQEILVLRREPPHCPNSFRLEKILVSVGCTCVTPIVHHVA


Key:
βNGF (human) [1] = target: βNGF (human) (UniProt P01138); assay: HTRF competition: test antibody titrated against biotinylated Tanezumab (Streptavidin-XL665) for cryptate-labelled βNGF, 665 nm/620 nm ratio, three parameter fit
βNGF (human) [2] = target: βNGF (human) (UniProt P01138); assay: HTRF competition; test antibody titrated against biotinylated Tanezumab for labeled βNGF
human IL-17a (human) = target: T1, human IL-17a (human); assay: KinExA 3000 solution equilibrium, N-curve analysis; human IL-17a on beads

UniProt P01138, sequence (P01138 122-239 limits assumed): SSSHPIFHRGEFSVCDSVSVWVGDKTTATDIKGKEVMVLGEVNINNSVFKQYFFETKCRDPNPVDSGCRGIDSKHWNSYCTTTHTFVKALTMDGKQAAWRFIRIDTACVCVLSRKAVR

Row | Molecule | IC50 (βNGF (human) [1]) [nM] | fold more potent IC50 than the HC encoded by SEQ ID NO: 16 (βNGF (human) [2]) [fold] | Kd (human IL-17a (human)) [nM]
1 | NEG CNT (antibody) | 4910 |  | 
2 | anti-NGF antibody containing the HC with a CDR1 insertion encoded by SEQ ID NO: 19 (antibody, part only; not given: light chain and constant region, V domains shown, part only) VH: QVQLVQSGAEVKKPGSSVKVSCKASGDTFSNYATGDTFSNYAISWVRQAPGQGFEWMGGIIPIFGIANYAQKFQGRVTITADESTSTAYMELSSLRSEDTAVYYCARGPEYYDYVWGSYRYNYFDYWGQGTLVTVSS | 181 | 6 | 
3 | anti-IL17a antibody containing the HC lacking the CDR3 insertion (encoded by SEQ ID NO: 29) (antibody, part only; not given: light chain and constant region, V domains shown, part only) VH: EVQLVESGGGLVQPGGSLRLSCAASGFTFSNHWMNWVRQTPGKGLEWVAAINEDGSEKYYVGSVKVRFTISRDNAKNSLYLQMNSLRVEDTAVYYCARDYYDILTDYYIHYWYFDLWGRGTLVTVSSASTKGPSVFPLAP |  |  | 0.067
